Laboratory results: patent US20250163168A1, “NOVEL ANTIBODIES AND ANTIBODY CONJUGATES FOR THE TREATMENT OF METABOLIC DISORDERS” (PFIZER INC., priority 2023, published 2025)

Target: biotinylated human FcRn (hFcRn) (human) (UniProt P55899)
Test: human FcRn affinity column, pH gradient 5.5 to 8.8; retention time relative to the assay control mAb-A (N = 2)

| hFcRN Relative Retention Time | Substance |
| --- | --- |
| 0.8 | negative control (polyreactivity assays) (antibody) |
| 4.15 | positive control (polyreactivity assays) (antibody) |
